# Target: tau seeds in spinal cord homogenates of P301S transgenic mice (aggregated transgenic human tau) (human), P10636
# Experiment: cell-based or functional assay
# tau seeds in spinal cord homogenates of P301S transgenic mice (aggregated transgenic human tau) (human), P10636, sequence (P10636 other isoform, or with tags, fused parts or gaps P301S P301S): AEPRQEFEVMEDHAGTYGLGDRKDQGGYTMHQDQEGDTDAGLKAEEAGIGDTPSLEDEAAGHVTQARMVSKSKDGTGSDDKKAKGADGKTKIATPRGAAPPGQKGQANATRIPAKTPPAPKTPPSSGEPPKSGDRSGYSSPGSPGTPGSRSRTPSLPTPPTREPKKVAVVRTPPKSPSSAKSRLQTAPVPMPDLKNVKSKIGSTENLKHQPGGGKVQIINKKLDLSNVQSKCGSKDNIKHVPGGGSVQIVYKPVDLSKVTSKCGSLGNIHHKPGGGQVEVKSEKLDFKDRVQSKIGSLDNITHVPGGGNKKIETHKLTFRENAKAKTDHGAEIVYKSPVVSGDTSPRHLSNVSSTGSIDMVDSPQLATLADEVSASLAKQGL
binder,measurement,value
"PT82 mAb (recombinantly expressed, mouse IgG2a/kappa) (antibody, V domains shown) VH: EVKLEESGGGLVQPGGSMKLSCVASGFTFSNYWMNWIRQSPEKGLEWVAQIRLQSDNYATRYAESVKGRFTISRDESKTSVYLQMNNLRTEDTGIYYCTGGTTYWGQGTLVTVSA VL: DIVMTQSQKFMSTSVGDRVSITCKASQNVGTAVAWYQQKPGQSPKLLIYSASIRYTGVPDRFTGSGSGTDFTLTINYMQSEDLADYFCQQFSSYPYTFGGGTKLEIK","K18 aggregate formation, FRET-positive HEK cells counted by FACS",3 nM
